Reference: PMC8515945 (Microbiology Spectrum, 2021)

Target: SARS-CoV-2 spike protein receptor-binding domain (residues 319 to 533), wild type (SARS-CoV-2, UniProt P0DTC2)
Test: SPR
Conditions: both partners purified

B1: nCoV617 (full-length recombinant human IgG1) (antibody, V domains shown)
VH: QVQLVESGGGVVQPGRSLRLSCAASGFTFSSYAMHWVRQAPGKGLEWVALISYDGSNKYADSVKGRFTISRDNSKNTLYLQMNSLRAEDTAVYYCARGLGLRFLEWPISSYWGQGTLVTVSS
VL: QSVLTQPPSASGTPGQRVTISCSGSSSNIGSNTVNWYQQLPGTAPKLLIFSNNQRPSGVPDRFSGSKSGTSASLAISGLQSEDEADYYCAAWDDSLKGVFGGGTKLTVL
notes: also called MAb nCoV617; NAb nCoV617
Question: For B1, which Kd is on record?
Answer: Its Kd is 4.23 nM.
